From publication PMC10397247

Legend:
4H462-bA = target: T1, 4H462-bA; assay: two-hybrid library CCNG1;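 further: natural log of median RNA to DNA barcode read ratio; higher means stronger binding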
T1 chain: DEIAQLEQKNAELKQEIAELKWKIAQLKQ

4H4001-bA = target: T2, 4H4001-bA; assay: two-hybrid library CCNG1;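 further: natural log of median RNA to DNA barcode read ratio; higher means stronger binding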
T2 chain: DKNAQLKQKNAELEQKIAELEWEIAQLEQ

4H568-bA = target: T3, 4H568-bA; assay: two-hybrid library CCNG1;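 further: natural log of median RNA to DNA barcode read ratio; higher means stronger binding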
T3 chain: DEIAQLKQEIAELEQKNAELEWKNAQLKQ

4H967-bA = target: T4, 4H967-bA; assay: two-hybrid library CCNG1;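 further: natural log of median RNA to DNA barcode read ratio; higher means stronger binding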
T4 chain: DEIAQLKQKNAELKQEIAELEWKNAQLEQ

4H883-bA = target: T5, 4H883-bA; assay: two-hybrid library CCNG1
T5 chain: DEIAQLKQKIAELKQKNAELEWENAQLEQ

4H72-bA = target: T6, 4H72-bA; assay: two-hybrid library CCNG1
T6 chain: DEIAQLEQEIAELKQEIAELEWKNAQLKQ

4H687-bA = target: T7, 4H687-bA; assay: two-hybrid library CCNG1
T7 chain: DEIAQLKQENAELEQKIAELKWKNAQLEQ

4H953-bA = target: T8, 4H953-bA; assay: two-hybrid library CCNG1
T8 chain: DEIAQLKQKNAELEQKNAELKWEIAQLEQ

4H607-bA = target: T9, 4H607-bA; assay: two-hybrid library CCNG1
T9 chain: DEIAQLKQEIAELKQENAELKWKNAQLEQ

4H3843-bA = target: T10, 4H3843-bA; assay: two-hybrid library CCNG1
T10 chain: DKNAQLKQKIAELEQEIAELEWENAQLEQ

4H797-bA = target: T11, 4H797-bA; assay: two-hybrid library CCNG1
T11 chain: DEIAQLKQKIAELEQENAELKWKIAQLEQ

4H918-bA = target: T12, 4H918-bA; assay: two-hybrid library CCNG1
T12 chain: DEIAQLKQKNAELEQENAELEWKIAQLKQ

4H908-bA = target: T13, 4H908-bA; assay: two-hybrid library CCNG1
T13 chain: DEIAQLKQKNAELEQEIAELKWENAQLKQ

4H462-bN = target: T14, 4H462-bN; assay: two-hybrid library CCNG1
T14 chain: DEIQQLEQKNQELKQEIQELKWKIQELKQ

4H687-bN = target: T15, 4H687-bN; assay: two-hybrid library CCNG1
T15 chain: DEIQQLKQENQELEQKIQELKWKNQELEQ

4H3855-bH = target: T16, 4H3855-bH; assay: two-hybrid library CCNG1
T16 chain: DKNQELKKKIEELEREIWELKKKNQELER

4H3782-bA = target: T17, 4H3782-bA; assay: two-hybrid library CCNG1
T17 chain: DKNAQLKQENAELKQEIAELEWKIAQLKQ

4H454-bA = target: T18, 4H454-bA; assay: two-hybrid library CCNG1
T18 chain: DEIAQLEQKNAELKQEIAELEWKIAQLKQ

4H3855-bA = target: T19, 4H3855-bA; assay: two-hybrid library CCNG1
T19 chain: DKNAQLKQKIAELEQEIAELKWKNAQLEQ

4H717-bA = target: T20, 4H717-bA; assay: two-hybrid library CCNG1
T20 chain: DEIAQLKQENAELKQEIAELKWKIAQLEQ

4H754-bA = target: T21, 4H754-bA; assay: two-hybrid library CCNG1
T21 chain: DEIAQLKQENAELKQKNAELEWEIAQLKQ

4H406-AA = target: T22, 4H406-AA; assay: two-hybrid library CCmax; conditions: mean of both orientations
T22 chain: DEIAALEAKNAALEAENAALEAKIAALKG

4H963-AA = target: T23, 4H963-AA; assay: two-hybrid library CCmax; conditions: mean of both orientations
T23 chain: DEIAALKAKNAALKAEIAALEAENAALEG

4H376-AA = target: T24, 4H376-AA; assay: two-hybrid library CCmax
T24 chain: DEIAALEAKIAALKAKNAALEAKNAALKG

4H688-AA = target: T25, 4H688-AA; assay: two-hybrid library CCmax; conditions: mean of both orientations
T25 chain: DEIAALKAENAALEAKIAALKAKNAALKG

4H883-AA = target: T26, 4H883-AA; assay: two-hybrid library CCmax
T26 chain: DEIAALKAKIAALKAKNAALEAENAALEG

4H918-AA = target: T27, 4H918-AA; assay: two-hybrid library CCmax; conditions: mean of both orientations
T27 chain: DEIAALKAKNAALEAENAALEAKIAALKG

4H953-AA = target: T28, 4H953-AA; assay: two-hybrid library CCmax; conditions: mean of both orientations
T28 chain: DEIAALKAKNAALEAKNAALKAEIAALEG

4H967-AA = target: T29, 4H967-AA; assay: two-hybrid library CCmax; conditions: mean of both orientations
T29 chain: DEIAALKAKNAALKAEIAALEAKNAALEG

4H816-AA = target: T30, 4H816-AA; assay: two-hybrid library CCmax; conditions: mean of both orientations
T30 chain: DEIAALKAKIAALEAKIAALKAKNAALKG

4H3940-AA = target: T31, 4H3940-AA; assay: two-hybrid library CCmax; conditions: mean of both orientations
T31 chain: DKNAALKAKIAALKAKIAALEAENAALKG

4H3409-AA = target: T32, 4H3409-AA; assay: two-hybrid library CCmax; conditions: mean of both orientations
T32 chain: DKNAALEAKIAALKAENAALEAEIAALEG

4H775-AA = target: T33, 4H775-AA; assay: two-hybrid library CCmax; conditions: mean of both orientations
T33 chain: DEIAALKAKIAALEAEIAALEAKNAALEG

4H87-AA = target: T34, 4H87-AA; assay: two-hybrid library CCmax; conditions: mean of both orientations
T34 chain: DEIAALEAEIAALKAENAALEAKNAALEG

4H2985-AA = target: T35, 4H2985-AA; assay: two-hybrid library CCmax
T35 chain: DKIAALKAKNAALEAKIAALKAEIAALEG

4H3134-AA = target: T36, 4H3134-AA; assay: two-hybrid library CCmax; conditions: mean of both orientations
T36 chain: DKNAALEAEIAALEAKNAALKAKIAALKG

4H3625-AA = target: T37, 4H3625-AA; assay: two-hybrid library CCmax; conditions: mean of both orientations
T37 chain: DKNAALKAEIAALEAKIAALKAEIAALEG

4H510-AA = target: T38, 4H510-AA; assay: two-hybrid library CCmax; conditions: mean of both orientations
T38 chain: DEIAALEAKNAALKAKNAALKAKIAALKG

4H390-AA = target: T39, 4H390-AA; assay: two-hybrid library CCmax; conditions: mean of both orientations
T39 chain: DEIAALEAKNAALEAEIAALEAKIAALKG

O8-bA = target: T40, O8-bA; assay: two-hybrid library CCNG1
T40 chain: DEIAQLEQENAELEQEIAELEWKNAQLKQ

O7-bA = target: T41, O7-bA; assay: two-hybrid library CCNG1
T41 chain: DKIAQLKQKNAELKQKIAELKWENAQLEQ

O9-bA = target: T42, O9-bA; assay: two-hybrid library CCNG1
T42 chain: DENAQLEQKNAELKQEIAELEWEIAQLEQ

## DKNAQLKQKIAELEQEIAELEWENAQLEQ [4H3843-bA]
4H462-bA
  interaction score: -0.841
4H4001-bA
  interaction score: -0.268
4H568-bA
  interaction score: -1.79
4H967-bA
  interaction score: -1.25
4H883-bA
  interaction score: -1.14
4H72-bA
  interaction score: 0.286
4H687-bA
  interaction score: -0.85
4H953-bA
  interaction score: -1.38
4H607-bA
  interaction score: -0.651
4H3843-bA
  interaction score: -0.878
4H797-bA
  interaction score: -0.879
4H918-bA
  interaction score: -1.1

## DKNAQLKQENAELKQEIAELEWKIAQLKQ [4H3782-bA]
4H462-bA
  interaction score: 0.962
4H4001-bA
  interaction score: 0.27
4H568-bA
  interaction score: -1.41
4H908-bA
  interaction score: -1.42
4H967-bA
  interaction score: 0.0169
4H883-bA
  interaction score: 0.21
4H72-bA
  interaction score: -0.987
4H462-bN
  interaction score: 1.22
4H687-bN
  interaction score: 0.761
4H687-bA
  interaction score: 0.572
4H953-bA
  interaction score: -1.07
4H607-bA
  interaction score: -0.58
4H3855-bH
  interaction score: 0.603
4H3843-bA
  interaction score: 1.18
4H3782-bA
  interaction score: 1.29
4H797-bA
  interaction score: 0.173
4H454-bA
  interaction score: 1.64
4H3855-bA
  interaction score: 0.312
4H717-bA
  interaction score: -0.182
4H918-bA
  interaction score: -1.34
4H754-bA
  interaction score: -0.898

## DEIAALEAKIAALKAKNAALEAKNAALKG [4H376-AA]
4H406-AA
  interaction score: -0.774
4H963-AA
  interaction score: -1.33
4H376-AA
  interaction score: -1.28
4H688-AA
  interaction score: -1.96

## DEIAALKAKIAALKAKNAALEAENAALEG [4H883-AA]
4H883-AA
  interaction score: -1.73
4H918-AA
  interaction score: -1.46
4H953-AA
  interaction score: -2.05
4H967-AA
  interaction score: -2.15

## DKIAALKAKNAALEAKIAALKAEIAALEG [4H2985-AA]
4H816-AA
  interaction score: -0.519
4H3940-AA
  interaction score: -0.918
4H3409-AA
  interaction score: -0.847
4H775-AA
  interaction score: -0.922
4H87-AA
  interaction score: -1.48
4H2985-AA
  interaction score: 0.681
4H3134-AA
  interaction score: -0.682
4H3625-AA
  interaction score: 0.889
4H510-AA
  interaction score: -0.541
4H390-AA
  interaction score: 1.71

## DENAQLEQEIAELEQKNAELKWEIAQLEQ [O5-bA]
O8-bA
  interaction score: -0.893
O7-bA
  interaction score: -0.303
O9-bA
  interaction score: -0.954
